In patent publication US20180251524A1 (published 2018):

Columns and labels:
Clone 3.2.20 = assay: yeast display flow cytometry titration; apparent
Clone 3.2.1 = assay: yeast display flow cytometry titration; estimated
Clone 3.2.22 = assay: yeast display flow cytometry titration; estimated
Clone 3.2.16 = assay: yeast display flow cytometry titration; estimated
Clone 3.2.17 = assay: yeast display flow cytometry titration; estimated
1DD-Fn-v4 Monomers = assay: flow cytometry titration on cells; apparent

Row | Binder | Kd (Clone 3.2.20) [nM] | Kd (Clone 3.2.1) [nM] | Kd (Clone 3.2.22) [nM] | Kd (Clone 3.2.16) [nM] | Kd (Clone 3.2.17) [nM] | Kd (1DD-Fn-v4 Monomers) [nM]
1 | EpCAM (receptor, biotinylated (site not stated)) QEECVCENYKLAVNCFVNNNRQCQCTSVGAQNTVICSKLAAKCLVMKAEMNGSKLGRRAKPEGALQNNDGLYDPDCDESGLFKAKQCNGTSMCWCVNTAGVRRTDKDTEITCSERVRTYWIIIELKHKAREKPYDSKSLRTALQKEITTRYQLDPKFITSILYENNVITIDLVQNSSQKTQNDVDIADVAYYFEKDVKGESLFHSKKMDLTVNGEQLDLDPGQTLIYYVDEKAPEFSMQGLK | 140 | 190 | 190 | 150 | 130 | 
2 | MCF-7 Cells (receptor) QEECVCENYKLAVNCFVNNNRQCQCTSVGAQNTVICSKLAAKCLVMKAEMNGSKLGRRAKPEGALQNNDGLYDPDCDESGLFKAKQCNGTSMCWCVNTAGVRRTDKDTEITCSERVRTYWIIIELKHKAREKPYDSKSLRTALQKEITTRYQLDPKFITSILYENNVITIDLVQNSSQKTQNDVDIADVAYYFEKDVKGESLFHSKKMDLTVNGEQLDLDPGQTLIYYVDEKAPEFSMQGLKAGVIAVIVVVVIAVVAGIVVLVISRKKRMAKYEKAEIKEMGEMHRELNA |  |  |  |  |  | 34.8
